Publication PMC3548793
Positions count from the first letter of the chain named. In names and notes the source's numbering stands.

T1: GFP-Sec13, P55735
T1 chain: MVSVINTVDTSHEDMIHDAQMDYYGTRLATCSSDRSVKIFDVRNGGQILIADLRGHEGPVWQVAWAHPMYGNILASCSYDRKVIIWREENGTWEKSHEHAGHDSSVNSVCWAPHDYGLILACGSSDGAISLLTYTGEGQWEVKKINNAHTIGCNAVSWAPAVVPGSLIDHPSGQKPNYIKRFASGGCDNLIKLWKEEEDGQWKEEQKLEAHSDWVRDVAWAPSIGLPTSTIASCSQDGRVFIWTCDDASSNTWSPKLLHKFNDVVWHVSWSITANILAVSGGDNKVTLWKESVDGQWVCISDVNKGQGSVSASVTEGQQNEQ

B1: FLAG-tagged wild type (WT) Sec31, O94979 S527A (protein)
chain: MKLKEVDRTAMQAWSPAQNHPIYLATGTSAQQLDATFSTNASLEIFELDLSDPSLDMKSCATFSSSHRYHKLIWGPYKMDSKGDVSGVLIAGGENGNIILYDPSKIIAGDKEVVIAQNDKHTGPVRALDVNIFQTNLVASGANESEIYIWDLNNFATPMTPGAKTQPPEDISCIAWNRQVQHILASASPSGRATVWDLRKNEPIIKVSDHSNRMHCSGLAWHPDVATQMVLASEDDRLPVIQMWDLRFASSPLRVLENHARGILAIAWSMADPELLLSCGKDAKILCSNPNTGEVLYELPTNTQWCFDIQWCPRNPAVLSAASFDGRISVYSIMGGSTDGLRQKQVDKLSSSFGNLDPFGTGQPLPPLQIPQQTAQHSIVLPLKKPPKWIRRPVGASFSFGGKLVTFENVRMPSHQGAEQQQQQHHVFISQVVTEKEFLSRSDQLQQAVQSQGFINYCQKKIDASQTEFEKNVWSFLKVNFEDDSRGKYLELLGYRKEDLGKKIALALNKVDGANVALKDSDQVAQADGEESPAAEEQLLGEHIKEEKEESEFLPSSGGTFNISVSGDIDGLITQALLTGNFESAVDLCLHDNRMADAIILAIAGGQELLARTQKKYFAKSQSKITRLITAVVMKNWKEIVESCDLKNWREALAAVLTYAKPDEFSALCDLLGTRLENEGDSLLQTQACLCYICAGNVEKLVACWTKAQDGSHPLSLQDLIEKVVILRKAVQLTQAMDTSTVGVLLAAKMSQYANLLAAQGSIAAALAFLPDNTNQPNIMQLRDRLCRAQGEPVAGHESPKIPYEKQQLPKGRPGPVAGHHQMPRVQTQQYYPHGENPPPPGFIMHGNVNPNAAGQLPTSPGHMHTQVPPYPQPQPYQPAQPYPFGTGGSAMYRPQQPVAPPTSNAYPNTPYISSASSYTGQSQLYAAQHQASSPTSSPATSFPPPPSSGASFQHGGPGAPPSSSAYALPPGTTGTLPAASELPASQRTGPQNGWNDPPALNRVPKKKKMPENFMPPVPITSPIMNPLGDPQSQMLQQQPSAPVPLSSQSSFPQPHLPGGQPFHGVQQPLGQTGMPPSFSKPNIEGAPGAPIGNTFQHVQSLPTKKITKKPIPDEHLILKTTFEDLIQRCLSSATDPQTKRKLDDASKRLEFLYDKLREQTLSPTITSGLHNIARSIETRNYSEGLTMHTHIVSTSNFSETSAFMPVLKVVLTQANKLGV
B2: FLAG-tagged wild type (WT) Sec31, O94979 S527A; S799A (protein)
chain: B1 chain with S799A
B3: FLAG-tagged wild type (WT) Sec31, O94979 S527A; S799A; T1165A (protein)
chain: B1 chain with S799A, T1165A
B4: FLAG-tagged wild type (WT) Sec31, O94979 S799A (protein)
chain: B1 chain with A527S, S799A

Molecular target: T1, GFP-Sec13, P55735
Assay: co-immunoprecipitation and western blotting
Details: chain shown with the change;; parent: 0.8

**Q.** For B1, which other: normalized ratio of co-IP'ed Sec31 is on record?
**A.** 1

**Q.** Which other: normalized ratio of co-IP'ed Sec31 does the source give for B2 here?
**A.** 1.2

**Q.** Which other: normalized ratio of co-IP'ed Sec31 does the source give for B3 here?
**A.** 1.4

**Q.** With B4 as the binder, how does the other: normalized ratio of co-IP'ed Sec31 read?
**A.** 1

Molecular target: GFP-tagged Sec23, Q15436
Assay: co-immunoprecipitation (anti-GFP beads) and western blotting, single blot quantified
Details: chain shown with the change; HEK293 cells co-transfected; parent: 1

GFP-tagged Sec23, Q15436, sequence (Q15436 whole entry): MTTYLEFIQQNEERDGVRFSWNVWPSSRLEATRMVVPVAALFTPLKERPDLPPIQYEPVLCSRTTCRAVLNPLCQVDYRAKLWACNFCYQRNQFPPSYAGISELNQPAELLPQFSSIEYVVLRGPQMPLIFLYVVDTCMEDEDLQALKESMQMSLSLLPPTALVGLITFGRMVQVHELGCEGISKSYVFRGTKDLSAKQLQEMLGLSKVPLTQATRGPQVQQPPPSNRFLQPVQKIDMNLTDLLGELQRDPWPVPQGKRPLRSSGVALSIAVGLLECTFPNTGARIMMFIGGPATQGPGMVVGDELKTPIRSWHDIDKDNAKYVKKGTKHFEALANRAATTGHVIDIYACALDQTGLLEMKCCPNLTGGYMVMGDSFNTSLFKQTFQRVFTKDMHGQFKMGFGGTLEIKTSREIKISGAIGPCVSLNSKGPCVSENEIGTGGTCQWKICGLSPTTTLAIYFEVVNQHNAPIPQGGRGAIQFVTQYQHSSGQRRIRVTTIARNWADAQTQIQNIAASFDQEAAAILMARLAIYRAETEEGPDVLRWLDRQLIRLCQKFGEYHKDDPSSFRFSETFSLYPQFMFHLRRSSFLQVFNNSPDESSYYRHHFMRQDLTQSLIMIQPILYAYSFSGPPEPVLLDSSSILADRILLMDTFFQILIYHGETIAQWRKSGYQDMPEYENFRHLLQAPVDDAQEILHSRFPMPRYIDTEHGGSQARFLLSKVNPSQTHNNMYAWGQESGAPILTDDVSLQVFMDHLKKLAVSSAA

**Q.** B1 was tested. Which ratio to parent did it give?
**A.** 1

**Q.** With B3 as the binder, how does the ratio to parent read?
**A.** 2.3

**Q.** For B4, which ratio to parent is on record?
**A.** 1.4

Molecular target: GFP-tagged Sec23, Q15436
Assay: co-immunoprecipitation (anti-GFP beads) and western blotting, mean of three experiments
Details: chain shown with the change; HEK293 cells co-transfected; parent: est. 1.0; read off a plot

**Q.** For B1, which ratio to parent is on record?
**A.** 0.9

**Q.** With B3 as the binder, how does the ratio to parent read?
**A.** 2.3

**Q.** With B4 as the binder, how does the ratio to parent read?
**A.** 1.5
